Measured values from article PMC10132805 (Nature Communications, 2023).
No end group written: not given here. *: point of attachment. FITC = O=C1OC2(c3ccc(O)cc3Oc3cc(O)ccc32)c2ccc(NC(=S)*)cc21

T1: N-terminal domain of clathrin (human, UniProt Q00610 1-364)
T1 construct: also called CLTC NTD; CLTC-NTD
T1 sequence: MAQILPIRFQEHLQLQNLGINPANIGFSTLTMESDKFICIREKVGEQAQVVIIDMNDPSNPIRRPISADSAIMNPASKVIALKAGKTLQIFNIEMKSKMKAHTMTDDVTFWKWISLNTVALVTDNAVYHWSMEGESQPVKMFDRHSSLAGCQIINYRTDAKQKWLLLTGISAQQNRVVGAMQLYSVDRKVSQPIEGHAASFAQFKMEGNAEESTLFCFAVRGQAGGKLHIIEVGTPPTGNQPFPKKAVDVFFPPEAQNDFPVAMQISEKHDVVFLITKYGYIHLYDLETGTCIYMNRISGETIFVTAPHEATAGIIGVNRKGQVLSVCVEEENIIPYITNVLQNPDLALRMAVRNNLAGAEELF

T2: GAE domain of ADP-ribosylation factor-binding protein GGA3 (GGA3 GAE) (human, UniProt Q9NZ52 594-715)
T2 construct: also called GGA3 ear
T2 sequence (looked up): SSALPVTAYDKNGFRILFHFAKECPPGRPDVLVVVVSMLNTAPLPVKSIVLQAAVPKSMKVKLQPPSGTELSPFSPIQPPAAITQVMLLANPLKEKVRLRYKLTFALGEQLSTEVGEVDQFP

T3: Mu homology domain (MHD) of the AP-2 subunit mu (AP2M1 MHD) (human, UniProt Q96CW1 170-434)
T3 sequence (looked up): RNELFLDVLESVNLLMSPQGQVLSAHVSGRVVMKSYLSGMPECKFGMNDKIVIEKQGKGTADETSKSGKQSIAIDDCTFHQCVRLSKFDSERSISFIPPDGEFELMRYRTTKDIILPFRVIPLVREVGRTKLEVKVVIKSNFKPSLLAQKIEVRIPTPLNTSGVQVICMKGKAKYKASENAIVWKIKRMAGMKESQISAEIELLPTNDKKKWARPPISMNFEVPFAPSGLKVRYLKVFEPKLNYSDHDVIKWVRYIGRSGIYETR

B1: mu-NS_(705-720) (MRV1) peptide (peptide)
peptide: VDGAADLIDFSVPTDE
B2: P/V/C_(183-198) (HeV) peptide (peptide)
peptide: SAGLNPAAVPFVPKNQ
B3: P/V/C_(183-198) (NiV) peptide (peptide)
peptide: TTGLNPTAVPFTLRNL
B4: N_(351-366) (HCoV 229E) peptide (peptide)
peptide: HPLLNPSALEFNPSQT
B5: PABP-interacting protein 2 peptide PAIP2_(108-123) (peptide, UniProt Q9BPZ3 108-123, looked up)
peptide: KSNLNPNAKEFVPGVK
notes: also called PAIP2 peptide
B6: PAIP2 108-123 (Human) (peptide)
peptide: KSNLNPNAKEFVPGVKY
B7: PAIP1 125-140 (Human) (peptide)
peptide: MSKLSVNAPEFYPSGY
B8: P/V/C 183-198 (HeV) (peptide)
peptide: SAGLNPAAVPFVPKNQY
B9: P/V/C 183-198 (NiV) (peptide)
peptide: TTGLNPTAVPFTLRNLY
B10: VP40 1-20 (SEBOV) (peptide)
peptide: MRRVTVPTAPPAYADIGYPM
B11: Nsp4 118-142 (BAV) (peptide)
peptide: VDEEKGLYPNLKLTEPTAPMIHNYM
B12: Nsp4 127-142 (BAV) (peptide)
peptide: NLKLTEPTAPMIHNYM
B13: FITC - gag 453-462 (HIV2) (peptide)
peptide: {FITC}-GLIPTAPPAD
B14: PDCD6IP 711-727 (Human) (peptide)
peptide: QSIAREPSAPSIPTPAY
B15: MDC1 1280-1295 (Human) (peptide)
peptide: TPEPVVPTAPELRPSTY
B16: tumor susceptibility gene 101 protein UEV domain (TSG101 UEV) (domain or fragment)
chain: AVSESQLKKMVSKYKYRDLTVRETVNVITLYKDLKPVLDSYVFNDGSSRELMNLTGTIPVPYRGNTYNIPICLWLLDTYPYNPPICFVKPTSSMTIKTGKHVDANGKIYLPYLHEWKHPQSDLLGLIQVMIVVFGDEPPVFSRP
B17: VHS domain of ADP-ribosylation factor-binding protein GGA3 (GGA3 VHS) (domain or fragment)
chain: ATNPSNRQEDWEYIIGFCDQINKELEGPQIAVRLLAHKIQSPQEWEALQALTVLEACMKNCGRRFHNEVGKFRFLNELIKVVSPKYLGDRVSEKVKTKVIELLYSWTMALPEEAKIKDAYHMLKRQGIVQS
B18: C terminal domain of polyadenylate-binding protein 1 (PABP1 PABC) (domain or fragment)
chain: QEPLTASMLASAPPQEQKQMLGERLFPLIQAMHPTLAGKITGMLLEIDNSELLHMLESPESLRSKVDEAVAVLQAHQA
notes: also called PABPC1 PABC; PABP1 C
B19: FITC - IGF2R 2482-2491 (Human) (peptide)
peptide: {FITC}-DDSDEDLLHI
B20: IGF2R 2476-2491 (Human) (peptide)
peptide: YKLVSFHDDSDEDLLHI
B21: M6PR 262-277 (Human) (peptide)
peptide: YQLGEESEERDDHLLPM
B22: M 26-41 (RABV) (peptide)
peptide: PDDDDLWLPPPEYIPL
B23: FITC - RABEP1 435-446 (Human) (peptide)
peptide: {FITC}-DESDFGPLVGAD
B24: RABEP1 433-448 (Human) (peptide)
peptide: NLDESDFGPLVGADSVY
B25: CLINT1 366-381 (Human) (peptide)
peptide: TSGNGDFGDWSAFNQA
B26: SYNRG 664-679 (Human) (peptide)
peptide: SSLADDFGEFSLFGEY
B27: P/V/C 130-145 (NiV) (peptide)
peptide: SSPERGWSDYTSGANN
B28: NP 460-485 (ZEBOV) (peptide)
peptide: DPDDGSYGEYQSYSEN
B29: M 32-47 (WCBV) (peptide)
peptide: WLPPPEYVPLHEISSK
B30: N 124-139 (MuV) (peptide)
peptide: ANEIAAYALLADDLPP
B31: Nsp4 75-90 (BAV) (peptide)
peptide: NLNRVRYSKLDENGVY
B32: L 177-192 (OLVV) (peptide)
peptide: SIEELEYQRLVTSLSK
B33: NP 334-349 (ZEBOV) (peptide)
peptide: VNVGEQYQQLREAATE
B34: F 519-534 (HeV) (peptide)
peptide: EKKRGNYSRLDDRQVR

target: T1, N-terminal domain of clathrin; conditions: both partners purified

| Binder | binding result |
| --- | --- |
| B1 | binds |

target: T4, C terminal domain of polyadenylate-binding protein 1 (human, UniProt P11940 544-623); conditions: both partners purified
T4 construct: also called PABP1 PABC; PABC
T4 sequence (P11940 544-623): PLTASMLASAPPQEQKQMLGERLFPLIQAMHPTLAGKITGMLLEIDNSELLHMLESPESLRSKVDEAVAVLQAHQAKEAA

| Binder | fold weaker affinity than PAIP2(108-123) [fold] | binding result |
| --- | --- | --- |
| B2 | 10 | – |
| B3 | – | binds |
| B4 | – | binds |
| B5 | – | binds |

target: B18; conditions: both partners purified

| Binder | Kd [µM] |
| --- | --- |
| B6 | 0.16 ± 0.2 |
| B7 | 1.58 ± 0.08 |
| B8 | 2 ± 0.3 |
| B9 | 14.6 ± 0.8 |

target: B16; conditions: both partners purified

| Binder | Kd [µM] |
| --- | --- |
| B10 | 12.2 ± 0.3 |
| B11 | 73 ± 2 |
| B12 | 64 ± 4 |
| B13 | 3.1 ± 0.2 |
| B14 | 152 ± 1 |
| B15 | 28 ± 0.7 |

target: VP0 79-94 (HPeV5) (Human parechovirus 5 (strain CT86-6760) …); conditions: both partners purified

| Binder | Kd [µM] |
| --- | --- |
| B16 | 75 ± 0.7 |

target: P1 54-69 (SFV) (Semliki forest virus (SFV)); conditions: both partners purified

| Binder | Kd [µM] |
| --- | --- |
| B17 | 82 ± 5 |

target: N 2-17 (BeV) (Berne virus (BEV)); conditions: both partners purified

| Binder | Kd [µM] |
| --- | --- |
| B18 | 2.7 ± 0.1 |

target: B17; conditions: both partners purified

| Binder | Kd [µM] |
| --- | --- |
| B19 | 4.2 ± 0.4 |
| B20 | 4.7 ± 0.2 |
| B21 | 21 ± 1 |
| B22 | 148 ± 8 |

target: T2, GAE domain of ADP-ribosylation …; conditions: both partners purified

| Binder | Kd [µM] |
| --- | --- |
| B23 | 1.9 ± 0.1 |
| B24 | 1.7 ± 0.3 |
| B25 | 35 ± 3 |
| B26 | 11.2 ± 0.3 |
| B27 | 48 ± 6 |
| B28 | 10.6 ± 0.5 |

target: T3, Mu homology domain (MHD) of the AP-2 …; conditions: both partners purified

| Binder | Kd [µM] |
| --- | --- |
| B29 | 12 ± 0.4 |
| B30 | 4 ± 0.1 |
| B31 | 15.9 ± 0.2 |
| B32 | 10.9 ± 0.1 |
| B33 | 9.51 ± 0.07 |
| B34 | 14 ± 1 |
